Measured values published in publication PMC8213764, “Human intelectin-1 (ITLN1) genetic variation and intestinal expression” (Scientific Reports, 2021).
Values joined by “and” are separate entries in the source; they are usually repeats but may differ in a detail not shown here. Equal entries are not always repeated.

Biological target: the molecule itself
Assay: non-reducing SDS-PAGE immunoblot; human ileal lysates (150 mM NaCl, 1% Triton X-100, 0.5% sodium deoxycholate, 0.1% SDS, 50 mM Tris pH 8.0), heated at 95 °C for 30 min without 2-mercaptoethanol, gradient SDS-PAGE (4-20%), immunoblot; oligomers stable under denaturing conditions

Row | Protein | stoichiometry N
1 | Human intelectin-1 (ITLN1) V109, from V109 homozygote (VV) ileal specimens (natural protein, human (endogenous in ileum), UniProt Q8WWA0 19-298, looked up, single glycosylation site at N163, Human intelectin-1 (ITLN1) with valine at position 109 (rs2274907 A allele), endogenous in ileal mucosa; also called VV genotype; V109-ITLN1; source: endogenous, ileal specimens of V109 homozygote individuals, in lysate) TDEANTYFKEWTCSSSPSLPRSCKEIKDECPSAFDGLYFLRTENGVIYQTFCDMTSGGGGWTLVASVHENDMRGKCTVGDRWSSQQGSKAVYPEGDGNWANYNTFGSAEAATSDDYKNPGYYDIQAKDLGIWHVPNKSPMQHWRNSSLLRYRTDTGFLQTLGHNLFGIYQKYPVKYGEGKCWTDNGPVIPVVYDFGDAQKTASYYSPYGQREFTAGFVQFRVFNNERAANALCAGMRVTGCNTEHHCIGGGGYFPEASPQQCGDFSGFDWSGYGTHVGYS | 3 and 6
2 | Human intelectin-1 (ITLN1) D109, from D109 homozygote (DD) ileal specimens (natural protein, human (endogenous in ileum), UniProt Q8WWA0 19-298, looked up, single glycosylation site at N163, Human intelectin-1 (ITLN1), natural missense variant rs2274907 (T allele) with aspartic acid at position 109, endogenous in ileal mucosa; Natural allele (rs2274907 T); also called DD genotype; D109-ITLN1; source: endogenous, ileal specimens of D109 homozygote individuals, in lysate) TDEANTYFKEWTCSSSPSLPRSCKEIKDECPSAFDGLYFLRTENGVIYQTFCDMTSGGGGWTLVASVHENDMRGKCTVGDRWSSQQGSKADYPEGDGNWANYNTFGSAEAATSDDYKNPGYYDIQAKDLGIWHVPNKSPMQHWRNSSLLRYRTDTGFLQTLGHNLFGIYQKYPVKYGEGKCWTDNGPVIPVVYDFGDAQKTASYYSPYGQREFTAGFVQFRVFNNERAANALCAGMRVTGCNTEHHCIGGGGYFPEASPQQCGDFSGFDWSGYGTHVGYS | 3 and 6
